Paper PMC6663966

How the values were obtained:
Assay in all cases: purified protein
Details in all cases: HEPES buffer supplemented with zinc; room temperature
[1] = system: CC(C)(O/N=C(\C(=O)N[C@@H]1C(=O)N2C(C(=O)[O-])=C(C[n+]3ccccc3)CS[C@H]12)c1csc(N)n1)C(=O)O
[2] = system: C[C@@H](O)[C@H]1C(=O)N2C(C(=O)O)=C(SCCN=CN)C[C@H]12
[3] = system: CC(=O)OCC1=C(C(=O)O)N2C(=O)[C@@H](NC(=O)Cc3cccs3)[C@H]2SC1
[4] = system: C[C@H]1[C@H](NC(=O)/C(=N\OC(C)(C)C(=O)O)c2csc(N)n2)C(=O)N1S(=O)(=O)O
[5] = system: CO[C@@]1(NC(=O)Cc2cccs2)C(=O)N2C(C(=O)O)=C(COC(N)=O)CS[C@@H]21
[6] = system: CCN1CCN(C(=O)N[C@@H](C(=O)N[C@@H]2C(=O)N3[C@@H]2SC(C)(C)[C@@H]3C(=O)O)c2ccccc2)C(=O)C1=O
[7] = system: C[C@@H](O)[C@H]1C(=O)N2C(C(=O)O)=C(S[C@@H]3CN[C@H](C(=O)N(C)C)C3)[C@H](C)[C@H]12
[8] = system: CC1(C)S[C@@H]2[C@H](NC(=O)Cc3ccccc3)C(=O)N2[C@H]1C(=O)O
[9] = system: C[C@@H](O)[C@H]1C(=O)N2C(C(=O)O)=C(S[C@@H]3CN[C@H](C(=O)Nc4cccc(C(=O)O)c4)C3)[C@H](C)[C@H]12
[10] = system: CO/N=C(\C(=O)N[C@@H]1C(=O)N2C(C(=O)[O-])=C(C[N+]3(C)CCCC3)CS[C@H]12)c1csc(N)n1
[11] = system: CO/N=C(\C(=O)N[C@@H]1C(=O)N2C(C(=O)O)=C(COC(C)=O)CS[C@H]12)c1csc(N)n1

Question: Which results are given for “PAN-1 (Pseudobacteriovorax antillogorgiicola)”?
Answer: Km [1]: 144.4 µM; kcat [1]: 8.1 s⁻¹; kcat/Km [1]: 56000 M⁻¹ s⁻¹; Km [2]: 470.5 µM; kcat [2]: 43.8 s⁻¹; kcat/Km [2]: 93100 M⁻¹ s⁻¹; Km [3]: 32.2 µM; kcat [3]: 6.9 s⁻¹; kcat/Km [3]: 214000 M⁻¹ s⁻¹; kcat [4]: < 0.01 s⁻¹; Km [5]: 13.3 µM; kcat [5]: 1.9 s⁻¹; kcat/Km [5]: 143000 M⁻¹ s⁻¹; Km [6]: 1074.2 µM; kcat [6]: 73.6 s⁻¹; kcat/Km [6]: 68000 M⁻¹ s⁻¹; Km [7]: 386 µM; kcat [7]: 22.9 s⁻¹; kcat/Km [7]: 59000 M⁻¹ s⁻¹; Km [8]: 161 µM; kcat [8]: 23.6 s⁻¹; kcat/Km [8]: 146000 M⁻¹ s⁻¹; Km [9]: 368.5 µM; kcat [9]: 2.9 s⁻¹; kcat/Km [9]: 7800 M⁻¹ s⁻¹; kcat [10]: < 0.01 s⁻¹; Km [11]: 245.7 µM; kcat [11]: 3.9 s⁻¹; kcat/Km [11]: 16000 M⁻¹ s⁻¹
